Results reported in patent publication US7125704B2, “Gluconate dehydratase” (priority 2003, dated 2006).

Assay: Thermostability and storage stability of purified gluconate dehydratase (remaining activity after standing)
Format: physicochemical, Achromobacter xylosoxidans strain ATCC 9220
Procedure: The gluconate dehydratase activity in the present invention produces 2-keto-3-deoxy-D-gluconic acid, using D-gluconic acid as the substrate. The activity can be determined as follows: A reaction mixture in an amount of 1 mL containing […] of a Tris buffer (pH 8.5), 40 μmol of sodium D-gluconate, 1 μmol of magnesium chloride, and the gluconate dehydratase is allowed to react at 37° C. for 10 minutes, and 200 μL of 1 M hydrochloric acid solution is added to the reaction mixture to stop the reaction; and then, the amount of the resulting 2-keto-3-deoxy-D-gluconic acid is determined by high-performance liquid chromatography (column: Shodex Asahipak NH2P-50 4E, produced by Showa Denko, column temperature: 40° C., mobile phase: 50 mM sodium dihydrogen phosphate solution, flow rate: 1 mL/min, detection at 210 nm). An amount of enzyme for catalyzing the production of 1 μmol of 2-keto-3-deoxy-D-gluconic acid for one minute is defined as 1 U. The amount of protein may be determined by a dye-binding method using a Bio-Rad protein assay kit.
Samples of the purified gluconate dehydratase solution prepared in Example 3, which was dissolved in the 30 mM Tris buffer (pH 8.5) containing 1 mM sodium D-gluconate and 1 mM magnesium chloride, […] Another sample was allowed to stand at 4° C. for 7 days and 30 days. […]

B1: Gluconate Dehydratase: heat-resistant gluconate dehydratase purified from Achromobacter xylosoxidans strain ATCC 9220, amino acid sequence SEQ ID NO:2 (protein)
chain: MTDTPRKLRSQKWFDDPAHADMTAIYVERYLNYGLTRQELQSGRPIIGIAQTGSDLAPCNRHHLALAERIKAGIRDAGGIPMEFPVHPLAEQGRRPTAALDRNLAYLGLVEILHGYPLDGVVLTTGCDKTTPACLMAAATVDIPAIVLSGGPMLDGWHDGQRVGSGTVIWHARNLMAAGKLDYEGFMTLATASSPSIGHCNTMGTALSMNSLAEALGMSLPTCASIPAPYRERGQMAYATGLRICDMVREDLRPSRILTREAFENAIVVASALGASSNCPPHLIAMARHAGIDLSLDDWQRLGEDVPLLVNCVPAGEHLGEGFHRAGGVPAVMHELLAAGRLHADCATVSGKTIGEIAAGAKTHDADVIRGCDAPLKHRAGFIVLSGNFFDSAVIKMSVVGEAFRRAYLSAPGDENAFEARAIVFEGPEDYHARIEDPALNIDEHCILVIRGAGTVGYPGSAEVVNMAPPSHLIKRGIDSLPCLGDGRQSGTSASPSILNMSPEAAVGGGLALLRTGDRIRVDLNQRSVIALVDEAELARRRQDPPYQPPPAQTPWQELYRQLVGQLSTGGCLEPSTLYLKVVETRGDPRHSH
modifications: Achromobacter xylosoxidans
buffer, 168 h
  Remaining activity (%): 100%
Storage at 0° C. in Tris buffer (pH 8.0 to 8.8), 1 mM sodium D-gluconate, 1 mM magnesium chloride (same conditions as the M250 report)
  Storage stability of the activity: maintain the activity stably for one month
